From US20240200055A1, “TRANSFORMED CELL LINES EXPRESSING IL24-STAT3 AND METHODS FOR SCREENING AGENTS FOR TREATING BY TARGETING IL24-STAT3 SIGNALING PATHWAY USING THE SAME” (UIF (University Industry Foundation), Yonsei University, priority 2022, published 2024)

Legend:
IL24-STAT3 signaling [1] = assay: IL24-induced STAT3 luciferase reporter activity in HeLa-IL24HTS cells, inhibitor test; type: cell-based, human; conditions: 1 μM Stattic, 150 ng/mL IL24, 8 hours, vs DMSO
Description: The selected and established HeLa-4.47 cells were cultured to 20% confluency on the day of infection. After removing the culture medium, lentivirus expressing hIL22RA1, hIL20RB or hSTAT3 was mixed with a culture medium and treated to the cells. After adding 2 μg of Polybrene per 1 mL of the virus, the plate was carefully shaken for mixing. After culturing for 15 hours under the condition of 37° C. and 5% CO2, the culture medium was replaced with a fresh one. 48 hours later, the transduced cells were cultured further and recombinant HeLa-IL24HTS cells were selected by culturing for 2 weeks in a medium containing 2 μg/mL puromycin, 5 μg/mL blasticidin S and 1,000 μg/mL G418 as antibiotics. Through this experiment, HeLa-4.47-hIL22RA1-hIL20RB-hSTAT3 cells that stably express all of hIL22RA1, hIL20RB and hSTAT3 were established and named HeLa-IL24HTS.
(§1) HeLa-IL24HTS cells and HeLa-EF1a-Luc2 cells were cultured on a 96-well plate at a concentration of 2.0×10^4 cells/well, respectively. After treating the cells with a vehicle (DMSO) (no Stattic) or 1 μM Stattic (CAS No: 19983-44-9), which is a STAT3 inhibitor, while treating with 150 ng/mL IL24 and culturing for 8 hours, luciferase activity was measured using a luciferase assay system (Promega).

HeLa-EF1a-Luc2 cells = assay: Luciferase reporter activity in HeLa-EF1a-Luc2 cells (background control); type: cell-based, human; conditions: 1 μM Stattic, 150 ng/mL IL24, 8 hours, vs DMSO
Description: Hela cells were cultured to 20% confluency on the day of infection. After removing the culture medium, lentivirus expressing Luc2 (LVX-EIP-Luc2) was mixed with a culture medium and treated to the cells. After adding 2 μg of Polybrene per 1 mL of the virus, the plate was carefully shaken for mixing. After culturing for 15 hours under the condition of 37° C. and 5% CO2, the culture medium was replaced with a fresh one. 48 hours later, the transduced cells were cultured further and recombinant HeLa-EF1a-Luc2 cells were selected by culturing for 2 weeks in a medium containing 2 μg/mL puromycin as an antibiotic.
as §1

IL24-STAT3 signaling [2] = assay: Luciferase activity of pGL4.47 HeLa clones co-transfected with hIL22RA1, hIL20RB and hSTAT3, with or without IL24; type: cell-based, human; conditions: 150 ng/mL IL24, 24 hours, clone 12 (HeLa-4.47)
Description: 2 mg of pGL4.47 (Promega, E4041), which is a STAT3 reporter plasmid, was linearized using the Pst1 restriction enzyme. The linearized plasmid was transfected into Hela cells using polyethyleneimine (Polysciences). 48 hours later, the cells were transferred to a 100-mm culture dish and only the transfected cells were selected by treating with 500 μg/mL hygromycin and culturing for 2 weeks. The selected transfected cells were cultured on a 96-well plate. The cells were dispensed at 0.5 cell per well. 33 clones were obtained by culturing further for 3 weeks. Each clone was mixed with pCMV-SPORT6-hIL22RA1 (Korea Human Gene Bank), pCMV3-hIL20RB (SinoBiological) and pCMV3-hSTAT3 (SinoBiological) at 1:1:1 for co-transfection. The transfected cells were treated or untreated with 150 ng/mL IL24. After culturing for 24 hours, luciferase activity was measured by luciferase assay. The clone with the strongest activity was established and named HeLa-4.47.
HeLa cells were transfected with pGL4.47 and selecting using hygromycin to obtain 33 clones. After co-transfecting each clone by mixing with pCMV-SPORT6-hIL22RA1, pCMV3-hIL20RB and pCMV3-hSTAT3 at 1:1:1, luciferase activity was measured using a luciferase assay system (Promega) for treatment with 150 ng/mL IL24 (IL24(+)) or absence of treatment (IL24(−)).

IL24-STAT3 signaling [3] = conditions: earlier literature reporter assay; cited from earlier work
IL24-STAT3 signaling [4] = assay: Reporter activity of HeLa-IL24HTS cells treated with IL24 at different concentrations; type: cell-based, human; conditions: 15 ng/mL or higher IL24, 24 hours
Description: The HeLa-4.47 cells established in Test Example 2 were treated with lentivirus expressing hIL22RA1, hIL20RB or hSTAT3 and selected with 2 μg/mL puromycin, 5 μg/mL blasticidin S and 1,000 μg/mL G418 as antibiotics to obtain HeLa-4.47-hIL22RA1-hIL20RB-hSTAT3 cells (HeLa-IL24HTS) which stably express all of hIL22RA1, hIL20RB and hSTAT3. The specific process of preparing the HeLa-IL24HTS cell line was the same as described above.
After treating the prepared HeLa-IL24HTS cells with IL24 at different concentrations (0.15 ng/mL, 1.5 ng/mL, 15 ng/mL and 150 ng/mL) and culturing for 24 hours, luciferase activity was measured using a luciferase assay system (Promega). […] It can be seen that the HeLa-IL24HTS cells show strong reporter induction of 60 fold or higher in the presence of 15 ng/mL or higher IL24.

Row | IL24(+)/IL24(−) ratio of luciferase activity (IL24-STAT3 signaling [2]) | Molecule | reporter activity inhibited (IL24-STAT3 signaling [1]) | change in reporter activity (HeLa-EF1a-Luc2 cells) | increase of reporter signal by IL24 (IL24-STAT3 signaling [3]) | reporter induction (IL24-STAT3 signaling [4]) [fold]
1 |  | O=[N+]([O-])c1ccc2c(c1)S(=O)(=O)C=C2 [Stattic] | about 80% | no significant change |  | 
2 | 150-200 | IL24: cytokine of the IL-10 family that signals through IL-20R1/IL-20R2 and IL-22R1/IL-20R2 and activates STAT3 (protein, UniProt Q13007 52-206, looked up) Interleukin-24: QEFHFGPCQVKGVVPQKLWEAFWAVKDTMQAQDNITSARLLQQEVLQNVSDAESCYLVHTLLEFYLKTVFKNYHNRTVEVRTLKSFSTLANNFVLIVSQLQPSQENEMFSIRDSAHRRFLLFRRAFKQLDVEAALTKALGEVDILLTWMQKFYKL |  |  | about 3 times | ≥ 60
